Results on three substances are retold here after US20190352375A1.

The assay concerns the target Hemagglutinin of AIV A/duck/It/775/04(H5N3) (Influenza A virus A/duck/Italy/775/2004(H5N3)). The experiment in a line: cell-based or functional assay.

“mAb 7: Monoclonal Antibody to Influenza A (Hemagglutinin H5) H5N1 - Purified, Acris Antibodies AM00945PU-N” returned an HI titer of 2 µg/mL. To “mAb 8: Monoclonal Antibody to Influenza A (Hemagglutinin H5) H5N1 - Purified, Acris Antibodies AM00941PU-N” belongs 1 µg/mL; to “mAb 9 (Pierce/Thermo Sci., Cat. No. MA1-81928) (antibody)”, 7.8 µg/mL.
